The source of these data is US20030130484A1, “Inhibitors and disassemblers of fibrillogenesis” (priority 2001, published 2003).

Like-named read-outs stand apart in the source and are kept apart here.

Assay [1] concerns the target Aβ16-22m. Nature of the assay: size exclusion chromatography, self-association. For orientation: Size exclusion chromatography separates by hydrodynamic size, large species first.
The target in assay [2] is human Aβ1-40 peptide (human). Nature of the assay: cell-based or functional assay.
For assay [3], the target named is human Aβ1-40 peptide (human). Nature of the assay: cell-based or functional assay. This is another data set of the same source.

As for KLVFFAE (modifications not checked) [Aβ16-22m], in assay [1], the percent oligomer (% oligomer (at 0.1 mg/ml)) fell in the range of 1 to 91 and the percent oligomer (% oligomer (at 6 mg/ml)) lay within 1 to 91. In addition, in assay [2], the IC50 of inhibition of fibrillogenesis (thioflavin fluorescence) (inhibitor:Aβ40 ratio) stood at 4, the Inhibition of Fibrillogenesis IC50 (thioflavin fluorescence) (inhibitor:Aβ40 molar ratio) came to 4.2, the Inhibition of Fibrillogenesis ICmax is 100% and the Inhibition of Fibrilogenesis IC50 (µM) came out at 4.2 µM. Moreover, in assay [2], the Inhibition of Fibrilogenesis ICmax (%) is 100% and the molar excess giving complete elimination of thioflavin fluorescence (fold molar excess) came out at 30.

With ELVFFAK (modifications not checked) [Aβ16-22mR], in assay [2], the IC50 of inhibition of fibrillogenesis (thioflavin fluorescence) (inhibitor:Aβ40 ratio) came to 9, the Inhibition of Fibrillogenesis IC50 (thioflavin fluorescence) (inhibitor:Aβ40 molar ratio) was 7.8, the Inhibition of Fibrillogenesis ICmax amounted to 100% and the Inhibition of Fibrilogenesis IC50 (µM) was determined as 7.8 µM. In assay [2], the Inhibition of Fibrilogenesis ICmax (%) was found to be 100% and the ratio giving complete elimination of thioflavin fluorescence (inhibitor:Aβ40 ratio) stood at 50.

Consider KLVFF (modifications not checked) [Aβ16-20], for which, in assay [3], the Inhibition IC50 (thioflavin T assay) (inhibitor:Aβ1-40 ratio) amounted to 9.7 and the Inhibition ICmax amounted to 100%. In addition, in assay [2], the Inhibition IC50 (thioflavin T fluorescence) (inhibitor to Aβ40 molar ratio) is 5.3 and the Inhibition ICmax is 89%.

As for KLVFF (modifications not checked) [Aβ16-20m], the Inhibition IC50 (thioflavin T assay) (inhibitor:Aβ1-40 ratio) in assay [3] came to 6.9. Moreover, in assay [2], the Inhibition IC50 (thioflavin T fluorescence) (inhibitor to Aβ40 molar ratio) stood at 6.5, the Inhibition ICmax was 100%, the Inhibition of Fibrilogenesis IC50 (µM) came out at 0.4 µM and the Inhibition of Fibrilogenesis ICmax (%) stood at 100%.

As for KLVFF (modifications not checked) [Aβ16-20e], in assay [3], the Inhibition IC50 (thioflavin T assay) (inhibitor:Aβ1-40 ratio) was found to be 3.7 and the Inhibition ICmax turned out to be 100%.
